From patent US20030012785A1 (WATSON PHARMACEUTICALS, published 2003)

Molecular target: T1, IL-2 receptor (mouse, on CTLL-2 cells and murine splenocytes) (mouse, UniProt P01590 22-268; P16297 27-539; P34902 23-369)
T1 sequence (looked up) 1: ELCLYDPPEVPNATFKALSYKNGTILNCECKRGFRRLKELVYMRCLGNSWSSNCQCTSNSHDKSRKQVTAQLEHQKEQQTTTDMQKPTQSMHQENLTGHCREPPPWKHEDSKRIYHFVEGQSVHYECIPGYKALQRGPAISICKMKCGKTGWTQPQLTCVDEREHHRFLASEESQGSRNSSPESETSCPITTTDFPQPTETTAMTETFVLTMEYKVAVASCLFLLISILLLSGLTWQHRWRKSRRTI
T1 sequence (looked up) 2: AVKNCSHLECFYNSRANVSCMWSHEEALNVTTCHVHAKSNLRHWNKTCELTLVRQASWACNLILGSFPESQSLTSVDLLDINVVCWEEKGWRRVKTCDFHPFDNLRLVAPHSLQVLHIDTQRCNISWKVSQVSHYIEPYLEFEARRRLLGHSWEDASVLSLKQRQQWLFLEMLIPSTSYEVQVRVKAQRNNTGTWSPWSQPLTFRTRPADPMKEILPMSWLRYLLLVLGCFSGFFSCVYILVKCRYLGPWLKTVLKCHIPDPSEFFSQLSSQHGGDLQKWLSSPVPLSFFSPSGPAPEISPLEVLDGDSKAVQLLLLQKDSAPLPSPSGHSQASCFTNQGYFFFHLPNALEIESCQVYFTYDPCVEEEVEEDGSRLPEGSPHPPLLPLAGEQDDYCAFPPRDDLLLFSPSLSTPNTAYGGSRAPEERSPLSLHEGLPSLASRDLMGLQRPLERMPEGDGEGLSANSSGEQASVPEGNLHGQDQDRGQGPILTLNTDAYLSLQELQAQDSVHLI
T1 sequence (looked up) 3: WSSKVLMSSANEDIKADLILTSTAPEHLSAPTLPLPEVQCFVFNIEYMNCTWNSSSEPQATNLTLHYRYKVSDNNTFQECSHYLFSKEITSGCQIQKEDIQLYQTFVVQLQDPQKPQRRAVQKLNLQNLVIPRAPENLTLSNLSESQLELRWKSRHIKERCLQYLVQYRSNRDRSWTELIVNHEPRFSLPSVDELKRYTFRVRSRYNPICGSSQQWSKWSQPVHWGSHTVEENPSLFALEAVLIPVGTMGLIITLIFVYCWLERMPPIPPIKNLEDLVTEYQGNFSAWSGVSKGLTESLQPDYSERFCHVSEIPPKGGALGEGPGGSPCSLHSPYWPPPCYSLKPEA
Assay: cell-based or functional assay

For TGLNRILLGFLG [unconjugated peptide TT23], the “Percent inhibition of IL-2 induced proliferation of murine splenocytes (recombinant human IL-2, trypan blue viable cell counts, 48 hours); amount needed relative to PEG-TT23” value was ~100 fold.
